The record followed here is US20250074984A1.

For orientation: Kd means a measure of binding affinity in units of concentration.

The target of test [1] is FcγRIIβ (UniProt P31994). The test is described as follows: ratio of the chip-kinetics KDs on Hu FcgRIIB and Hu FcgRIIA_R167.
The target of test [2] is FcγRIIβ (UniProt P31994). Briefly: chip kinetics; antibody captured on protein A/G, receptor injected as analyte.
For test [3], the target named is human FcγRIIα_R167 (human) (UniProt P12318). The description is as above.
Test [4] deals with FcγRIIβ (UniProt P31994). The test is described as follows: ratio of the chip-kinetics KDs on Hu FcgRIIA_R167 and Hu FcgRIIB.
For test [5], the target named is human FcγRIIα_H167 (human) (UniProt P12318). Briefly: chip kinetics; antibody captured on protein A/G, receptor injected as analyte.
Sequence of human FcγRIIα_H167 (human) (P12318 36-218): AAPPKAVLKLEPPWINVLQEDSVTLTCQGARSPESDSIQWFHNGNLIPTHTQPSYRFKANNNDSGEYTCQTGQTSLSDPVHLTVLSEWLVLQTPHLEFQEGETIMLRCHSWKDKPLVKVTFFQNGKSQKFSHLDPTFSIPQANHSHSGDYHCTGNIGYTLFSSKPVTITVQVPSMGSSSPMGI

Sequence of FcγRIIβ (P31994 46-217): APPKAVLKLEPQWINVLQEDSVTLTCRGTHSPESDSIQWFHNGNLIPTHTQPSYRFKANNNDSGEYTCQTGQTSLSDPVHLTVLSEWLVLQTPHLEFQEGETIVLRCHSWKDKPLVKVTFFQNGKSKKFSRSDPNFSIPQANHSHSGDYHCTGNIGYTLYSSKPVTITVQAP
Sequence of human FcγRIIα_R167 (human) (P12318 36-218 H167R): as the sequence (P12318 36-218) above, with H132R counted along it

For the substance IgG1 P238D (antibody), the Ratio iib/iia (KD human iib/KD human iia R) with FcγRIIβ [1] was determined as 0.32. In the test with FcγRIIβ [2], this substance returned a Fold = KD(IgG WT)/KD(variants) of 3.18 fold and a Kd of 1600 nM. The substance further came in with a Fold = KD(IgG WT)/KD(variants) in test [3] of under 0.3 fold. Moreover, in the test with FcγRIIβ [4], the Ratio iia/iib (KD human iia R/KD human iib) turned out to be 3.12.

Consider IgG1 WT (antibody), for which the Kd in test [3] amounted to 1550 nM; in test [5], 1000 nM.
